These results are taken from patent US20060228349A1.

pKd: −log10 of the molar value.

The target in experiment [1] is Aβ-derived diffusible ligands (synthetic ADDLs), soluble oligomers of amyloid β1-42. Description: solution equilibrium titration, free IgG by ELISA, GraFit; SE 0.042.
Experiment [2] deals with ADDL fibril preparation (Aβ1-42 fibrils). In words: solution equilibrium titration, free IgG by ELISA, GraFit; SE 0.12.
In experiment [3] the target is Aβ1-20 peptide. Description: solution equilibrium titration, free IgG by ELISA, GraFit; SE 3.53.
The target of experiment [4] is amyloid beta (1-40) peptide. Description: solution equilibrium titration, free IgG by ELISA, GraFit; SE 0.62.

Sequence of Aβ1-20 peptide (peptide, as listed by the source): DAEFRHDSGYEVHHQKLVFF

Consider monoclonal antibody WO-2, for which the pKd in experiment [1] was 9.24; in experiment [2], 8.94; in experiment [3] it was 7.72; in experiment [4] it was 8.21.
